In US20240400663A1 (Regeneron, published 2024):

B1: H1H29138P (antibody, V domains shown)
VH: QVQLVESGGGVVQPGRSLRLSCAASGFTFSTYGMHWVRQAPGKGLEWVAVIWYDGTNKYYADSVKGRFTISRDNSKNTLYLQMISLRAEDTAVYYCARDPSGGDHYYYYGMDVWGQGTTVTVSS
VL: DIQMTQSPSSLSASVGDRITITCQASQDISNYLNWYQQKPGKAPNLLISDASDLETGVPSRFSGSGSGTDFTFTISSLQPEDFATYYCQQYDNIPITFGQGTRLEIKR
B2: H1H29171P2 (antibody, V domains shown)
VH: QVQLVESGGGVVQPGRSLRLSCAASGFTFSSYGMHWVRQAPGKGLEWVAVISYDGSNKYYADSVKGRFTISRDNSKNTLYLQMNSLRAEDTAVYYCAKDDWNYDAFDIWGQGTMVTVSS
VL: not shown
B3: H1H29207P2 (antibody, V domains shown)
VH: EVQLVESGGGLVQPGGSLRLSCAASGFTFSSYAMNWVRQAPGKGLEWVSAVSGSADITNYADSVKGRFTISRDNSKHTLYLQMNSLRAEDTAVYYCAKDKVYNWNYGIYYGMDVWGQGTTVTVSS
VL: not shown
B4: H1H29094P (antibody, V domains shown)
VH: not shown
VL: DIQMTQSPSSLSASVGDRVTITCQASQDINRDLNWYQQKSGKGPKLLIYDASNLETGVPSRFSGNRFGTDFTFTISRLQPEDIATYFCQQYKNLPYTFGQGTKLEIKR
B5: H1H29198P2 (antibody, V domains shown)
VH: QVQLVQSGAEVKKPGASVKVSCKVSGYTLTELSMHWVRQAPGKGLEWMGGFDPEHGKIIYAQKFQGRVTMTEDTSTDTAYMELSSLRSEDTAVYYCATFYNWNSYYFGMDVWGHGTTVTVSS
VL: not shown
B6: H1H29183P2 (antibody, V domains shown)
VH: QVQLVQSGPEVKKPGASVKVSCKASGYTFTSYGISWVRQAPGQGLEWLGWISGFNGRTDYTEKLQDRITMTTDRSSSTAYMELRSLRYDDTAVYYCARDGLEKLGDYWGQGTLVTVSS
VL: not shown
B7: H1H29163P2 (antibody, V domains shown)
VH: QVQLVQSGAEVKKPGASVKVSCKTSGYTFTAYYIHWVRQAPGQGLEWMGWINPNNGDTNYALRFQGRVTMTRDMSINTAYMELRGLRSDDTAVYYCARDDLAAAGIGWFDSWGQGTLVTVSS
VL: not shown
B8: H1H29179P2 (antibody, V domains shown)
VH: QVQLQESGPGLVKPSQTLSLTCTVSGGSISSSGYYWSWIRQHPGRGLEWIGYIYYSGSTYYNPSLKSRVTISVDTSKNQFSLKLNSVTAADTAVYYCARVDYGSGSSFDYWGQGTLVTVSS
VL: not shown
B9: H1H29192P2 (antibody, V domains shown)
VH: QVQLVQSGAEVKKPGASVRVSCMASGYTFTGYYMHWVRQAPGQGLEWMGWINPNSGGTKYAQKFQGRVTMTRDTSISTAYMELSRLRSDDTAVYYCAREEVDDFWSGYLDYWGQGTLVTVSS
VL: not shown
B10: H1H29151P2 (antibody, V domains shown)
VH: QVQLVESGGGLVKPGGSLRLSCAASGFTFSDYYMNWVRQAPGKGLEWVSYISNSGNTQYYADSVKGRFTISRDNAKNSLFLQMNSLRAEDTAVYYCTREGLEYSSSEPFDYWGQGTLVTVSS
VL: not shown
B11: H1H29196P2 (antibody, V domains shown)
VH: EVQLVESGGDLVQPGGSLRLSCAASGFAVNGDYFSWVRQAPGKGLEWISVIYSSGNTYYADSVKGRFTISRHNSKNTLYLQMSSLRPEDTAVYYCARDFPPMSGADYWGQGTLVTVSS
VL: not shown
B12: H1H29166P2 (antibody, V domains shown)
VH: EVQLVESGGGLLQPGRSLRLSCVASGFTFDDYAMHWVRQAPGKGLEWVSGISWNSESIGYADSVRGRFTISRDNAKNSLYLQMNSLRAEDTALYYCAKAPYSGTYFEYFRHWGQGTLVTVSS
VL: not shown
B13: H1H29125P (antibody, V domains shown)
VH: QVQLVESGGGVVQPGRSLRLSCAASGFTFSSYGMHWVRQAPGKGLEWMAVISYDGSNKYYADSVKGRFTISRDNSKNTLFLQMNSLRPEDTAVYYCAQDGSSAIYYFYGMDVWGQGTTVTVSS
VL: DIQMTQSPSSLSASIGDRVTITCRASQDINNYLAWFQQKPGKAPKSLIYAASSLQSGVPSKFSGSGSGTDFTLTISSLQPEDFATYYCLQYNSYHPTFGQGTKLEIKR
B14: H1H29141P (antibody, V domains shown)
VH: QVQLVESGGGVVQPGRSLRLSCAASGFTFSSYGMHWVRQAPGKGLEWVTFISFDERNKYYADSVKGRFTISRDNSKNTLYLQMNSLRAEDTAMYYCASEVGYSFGHDAFDIWGQGTMVTVSS
VL: not shown
B15: H1H29146P2 (antibody, V domains shown)
VH: EVQLVESGGGLVQPGGSLQLSCAASGFAFSDSAIYWVRQASGKGLEWVGRIRNKANRFATAYGASVKGRFSIHRDDSKNTAYLQMNSLKTEDTAVYYCARHGHDTLTEGYGMDVWGQGTTVTVSS
VL: not shown
B16: H1H29149P2 (antibody, V domains shown)
VH: QVQLQESGPGLVKPSQTLSLTCTVSGGSISSGGYYWNWIRQHPGKGLEWIGYIYYSGSTYYNPSLKSRVTISVDTSKNQFSLKLGSVTAADTAVYYCARAPPYNWFDYWGQGTLVTVSS
VL: not shown

These binders were tested against PfRH5 of Plasmodium falciparum strain Dd2 (on live parasites) (Plasmodium falciparum) (assay: cell-based or functional assay).

Binder | Max growth inhibition (%) Dd2 [%]
B1 | 74.4
B2 | 7.71
B3 | 61.3
B4 | 41.6
B5 | 10.1
B6 | 0.68
B7 | 61.2
B8 | 13.5
B9 | -15.2
B10 | 58
B11 | -1.65
B12 | 60
B13 | 51.4
B14 | 65.3

What follows are binders tested against PfRH5 of Plasmodium falciparum strain D10 (on live parasites) (Plasmodium falciparum) (assay: cell-based or functional assay).

Binder | Max growth inhibition (%) D10 [%]
B15 | 10.8
B1 | 57.1
B2 | 10.6
B3 | 73.9
B4 | 35.9
B5 | 4.38
B6 | 6.79
B8 | 62.5
B9 | 8.7
B10 | 38.7
B11 | 14.3
B12 | 70.9
B13 | 75.4
B14 | 50
B16 | 66

What follows are binders tested against PfRH5 of Plasmodium falciparum strain FCR-1/FVO (on live parasites) (Plasmodium falciparum) (assay: cell-based or functional assay).

Binder | Max growth inhibition (%) FCR-1/FVO [%]
B15 | 7.32
B1 | 84.1
B2 | 11.7
B3 | 69.2
B4 | 51.2
B5 | 11.1
B6 | 16.1
B7 | 64.5
B8 | 49
B9 | 15.1
B10 | 53.7
B11 | 21.9
B12 | 69.7
B13 | 67.6
B14 | 74.2
B16 | 58

What follows are binders tested against PfRH5 of Plasmodium falciparum strain W2-mef (on live parasites) (Plasmodium falciparum) (assay: cell-based or functional assay).

Binder | Max growth inhibition (%) W2-mef [%]
B15 | 0.57
B1 | 66.4
B2 | 0.74
B3 | 65.2
B4 | 34.9
B5 | -3.61
B6 | -0.55
B7 | 63.7
B8 | 22.9
B9 | 4.35
B10 | 53.9
B11 | 17
B12 | 61.9
B13 | 64.6
B14 | 56.2
B16 | 42.8

The binders below were run against PfRH5 of Plasmodium falciparum strain 7G8 (on live parasites) (Plasmodium falciparum) (assay: cell-based or functional assay).

Binder | Max growth inhibition (%) 7G8 [%]
B15 | 19.1
B1 | 57.4
B2 | 17
B3 | 58.7
B4 | 29.9
B5 | 5.31
B6 | 17.8
B7 | 62.6
B8 | 34.1
B9 | 12.4
B10 | 47.5
B11 | 23.4
B12 | 54.6
B13 | 47
B14 | 54.6

The binders below were run against PfRH5 of Plasmodium falciparum strain Cam3.II (on live parasites) (Plasmodium falciparum) (assay: cell-based or functional assay).

Binder | Max growth inhibition (%) Cam3.II [%]
B15 | 8.18
B1 | 48.7
B2 | 5.45
B3 | 45.3
B4 | 26.2
B5 | 14.7
B6 | 8.66
B7 | 46.7
B8 | 33.4
B9 | -3.38
B10 | 26.3
B11 | 6.09
B12 | 55.9
B13 | 42.7
B14 | 49.3
B16 | 36.2

The binders below were run against PfRH5 of Plasmodium falciparum strain RF7 (on live parasites) (Plasmodium falciparum) (assay: cell-based or functional assay).

Binder | Max growth inhibition (%) RF7 [%]
B15 | 5.97
B1 | 51.4
B2 | -12.5
B3 | 31.1
B4 | 15.2
B5 | 1.53
B6 | -6.27
B7 | 10.7
B8 | -2.99
B9 | -7.69
B10 | 18.3
B11 | 3.78
B12 | 19.4
B13 | 21
B14 | 32.1
B16 | 14.7

These binders were tested against PfRH5 of Plasmodium falciparum strain HB3 (on live parasites) (Plasmodium falciparum) (assay: cell-based or functional assay).

Binder | Max growth inhibition (%) HB3 [%]
B15 | 33.9
B1 | 51.4
B2 | 0.52
B3 | 49.3
B4 | 45.4
B5 | 15.5
B6 | 4.92
B7 | 56.5
B8 | 40.9
B9 | 5.62
B10 | 31.7
B11 | 26.8
B12 | 54.9
B14 | 50
B16 | 40
